For one substance, percentage of CD69-positive CAR Jurkat cells after 24 h stimulation with PSMA-positive tumor cells (C4-2, LNCaP), E:T 1:1 results are on record in US20210371491A1, “CHIMERIC ANTIGEN RECEPTORS THAT BIND TO PROSTATE SPECIFIC MEMBRANE ANTIGEN” (Albert-Ludwigs-Universitaet Freiburg, priority 2018, published 2021).

For this assay, the target named is prostate specific membrane antigen (PSMA) (UniProt Q04609). The assay can be described thus: cell-based or functional assay.
prostate specific membrane antigen (PSMA), sequence (Q04609 whole entry, form in doubt): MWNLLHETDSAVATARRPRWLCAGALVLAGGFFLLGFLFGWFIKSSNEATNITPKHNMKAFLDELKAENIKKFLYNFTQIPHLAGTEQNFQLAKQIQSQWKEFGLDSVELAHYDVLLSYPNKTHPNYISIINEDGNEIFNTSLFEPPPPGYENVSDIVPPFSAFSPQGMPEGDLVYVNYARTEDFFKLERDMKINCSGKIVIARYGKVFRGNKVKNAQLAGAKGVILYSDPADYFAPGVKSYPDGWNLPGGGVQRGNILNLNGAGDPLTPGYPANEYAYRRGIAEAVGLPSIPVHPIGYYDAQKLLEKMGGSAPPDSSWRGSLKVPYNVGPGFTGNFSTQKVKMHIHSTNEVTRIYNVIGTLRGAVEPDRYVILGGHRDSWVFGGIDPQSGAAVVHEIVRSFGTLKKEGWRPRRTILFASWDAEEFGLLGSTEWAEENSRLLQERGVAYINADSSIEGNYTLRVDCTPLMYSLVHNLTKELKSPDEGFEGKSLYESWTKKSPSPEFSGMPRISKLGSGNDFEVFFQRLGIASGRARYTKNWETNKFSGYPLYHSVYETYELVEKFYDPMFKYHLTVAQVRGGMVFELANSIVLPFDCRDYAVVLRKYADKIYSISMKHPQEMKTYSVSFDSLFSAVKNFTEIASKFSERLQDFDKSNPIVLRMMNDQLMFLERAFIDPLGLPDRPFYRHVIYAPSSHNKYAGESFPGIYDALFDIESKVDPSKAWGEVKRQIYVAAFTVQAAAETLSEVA

The substance “CAR28 (J591), anti-PSMA CAR with scFv derived from antibody J591” returned a percentage of CD69-positive CAR Jurkat cells after 24 h stimulation with PSMA-positive tumor cells (C4-2, LNCaP), E:T 1:1 of 70%.
